In this data set the target is 111p (modern human L1Pa1 ORF1p) (Homo sapiens, UniProt Q9UN81 1-338). As to the kind of experiment: filter binding; 0.05 M NaCl, 37 C; the three proteins indistinguishable; Filter binding: 20 mM Tris, 10% glycerol, 0.5 mM MgCl2, 0.1 mM DTT, 100 ug/ml BSA, 0.05 M NaCl, 37 C 1 h, 0.1 nM DNA; cross-linking: 20 mM Hepes pH 7.5, 10% gly.

This note sets out measurements from PMC4705668.

111p (modern human L1Pa1 ORF1p), sequence (Q9UN81 whole entry): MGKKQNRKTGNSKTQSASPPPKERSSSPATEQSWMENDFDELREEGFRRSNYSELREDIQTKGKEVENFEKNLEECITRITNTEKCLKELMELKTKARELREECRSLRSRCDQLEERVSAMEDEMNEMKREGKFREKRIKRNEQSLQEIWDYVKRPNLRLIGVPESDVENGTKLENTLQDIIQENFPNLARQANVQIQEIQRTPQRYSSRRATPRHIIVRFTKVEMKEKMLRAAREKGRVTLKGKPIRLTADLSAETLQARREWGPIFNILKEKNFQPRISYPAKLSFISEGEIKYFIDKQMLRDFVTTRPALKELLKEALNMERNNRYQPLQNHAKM

B1: mismatched duplex d29 / d29_c-mm (dsDNA)
DNA 1: AAAAAGTACACAGTCTAACATCAACTCGC
DNA 2: GCGAGTTGACGTCAGACCGTGCACTTTTT
As for B1, the binding result is “binds”.
